Values joined by “and” are separate entries in the source; they are usually repeats but may differ in a detail not shown here. Equal entries are not always repeated.

Sequences and labels used below:
B1: Recombinant Fas-Fc (Fc fusion, UniProt P25445 26-173, looked up)
chain: QVTDINSKGLELRKTVTTVETQNLEGLHHDGQFCHKPCPPGERKARDCTVNGDEPDCVPCQEGKEYTDKAHFSSKCRRCRLCDEGHGLEVEINCTRTQNTKCRCKPNFFCNSTVCEHCDPCTKCEHGIIKECTLTSNTKCKEEGSRSN
notes: Fas (CD95/APO-1) part of a bought recombinant Fas-Fc; The reagents section also names a laboratory-made Fas-Fc purified on protein A; the SPR methods name the R&D Systems protein; source: bought: R&D Systems
B2: D2FasL (D2 module of gp190 fused to the extracellular domain of hFasL) (ligand, UniProt P42702 329-542, looked up)
chain: AGYPPDTPQQLNCETHDLKEIICSWNPGRVTALVGPRATSYTLVESFSGKYVRLKRAEAPTNESYQLLFQMLPNQEIYNFTLNAHNPLGRSQSTILVNITEKVYPHTPTSFKVKDINSTAVKLSWHLPGNFAKINFLCEIEIKKSNSVQEQRNVTIKGVENSSYLVALDKLNPYTLYTFRIRCSTETFWKWSKWSNKKQHLTTEASPSKGPDTWQKELAELRESTSQMHTASSLEKQIGHPSPPPEKKELRKVAHLTGKSNSRSMPLEWEDTYGIVLLSGVKYKKGGLVINETGLYFVYSKVYFRGQSCNNLPLSHKVYMRNSKYPQDLVMMEGKMMSYCTTGQMWARSSYLGAVFNLTSADHLYVNVSELSLVNFEESQTFFGLYKL
notes: extracellular domain of human FasL (hFasL), amino acids 108 to 281; source: COS cells, transiently transfected (pED4 vector), supernatant; for SPR in Opti-MEM, concentrated 100 times, dialysed against PBS
B3: D1IgD2FasL (D1IgD2 modules of gp190 fused to the extracellular domain of hFasL) (ligand, UniProt P42702 49-542, looked up)
chain: APHDLKCVTNNLQVWNCSWKAPSGTGRGTDYEVCIENRSRSCYQLEKTSIKIPALSHGDYEITINSLHDFGSSTSKFTLNEQNVSLIPDTPEILNLSADFSTSTLYLKWNDRGSVFPHRSNVIWEIKVLRKESMELVKLVTHNTTLNGKDTLHHWSWASDMPLECAIHFVEIRCYIDNLHFSGLEEWSDWSPVKNISWIPDSQTKVFPQDKVILVGSDITFCCVSQEKVLSALIGHTNCPLIHLDGENVAIKIRNISVSASSGTNVVFTTEDNIFGTVIFAGYPPDTPQQLNCETHDLKEIICSWNPGRVTALVGPRATSYTLVESFSGKYVRLKRAEAPTNESYQLLFQMLPNQEIYNFTLNAHNPLGRSQSTILVNITEKVYPHTPTSFKVKDINSTAVKLSWHLPGNFAKINFLCEIEIKKSNSVQEQRNVTIKGVENSSYLVALDKLNPYTLYTFRIRCSTETFWKWSKWSNKKQHLTTEASPSKGPDTWQKELAELRESTSQMHTASSLEKQIGHPSPPPEKKELRKVAHLTGKSNSRSMPLEWEDTYGIVLLSGVKYKKGGLVINETGLYFVYSKVYFRGQSCNNLPLSHKVYMRNSKYPQDLVMMEGKMMSYCTTGQMWARSSYLGAVFNLTSADHLYVNVSELSLVNFEESQTFFGLYKL
notes: as for B2
B4: pFasL (polymeric soluble FasL; IgFasL chimera: Ig module of gp190 fused to the extracellular domain of hFasL) (ligand, UniProt P42702 246-328, looked up)
chain: WIPDSQTKVFPQDKVILVGSDITFCCVSQEKVLSALIGHTNCPLIHLDGENVAIKIRNISVSASSGTNVVFTTEDNIFGTVIFQKELAELRESTSQMHTASSLEKQIGHPSPPPEKKELRKVAHLTGKSNSRSMPLEWEDTYGIVLLSGVKYKKGGLVINETGLYFVYSKVYFRGQSCNNLPLSHKVYMRNSKYPQDLVMMEGKMMSYCTTGQMWARSSYLGAVFNLTSADHLYVNVSELSLVNFEESQTFFGLYKL
notes: Ig-like (Ig) module of the LIF receptor gp190, amino acids 246 to 328; extracellular domain of human FasL (hFasL), amino acids 108 to 281; source: COS cells, transiently transfected (pED4 vector), supernatant; for SPR in Opti-MEM, concentrated 100 times, dialysed against PBS; copies: 12
B5: cleaved FasL (cFasL), spontaneously cleaved membrane FasL (ligand, human, UniProt P48023 127-281, looked up)
chain: LEKQIGHPSPPPEKKELRKVAHLTGKSNSRSMPLEWEDTYGIVLLSGVKYKKGGLVINETGLYFVYSKVYFRGQSCNNLPLSHKVYMRNSKYPQDLVMMEGKMMSYCTTGQMWARSSYLGAVFNLTSADHLYVNVSELSLVNFEESQTFFGLYKL
notes: human FasL, soluble product of the metalloprotease cleavage between amino acids 126 and 127; the C-terminal end 281 is the one printed for the extracellular domain; Homotrimer by gel filtration; also called sFasL; metalloprotease-cleaved FasL; source: COS cells transfected with wild-type FasL, supernatant (spontaneously cleaved by a metalloprotease); for SPR in serum-free medium, concentrated 100 …

The target of series [1] is B5. The experiment in a line: SPR; BIAcore 3000; Fas-Fc covalently coupled to a CM5 flow cell (2,000 RU); FasL constructs as concentrated, dialysed COS supernatants flowed over (0.2-100 nM IgFasL, 0.2-44 nM cFasL, 0.2-37.5 nM D2FasL, 0.25-8 nM D1IgD2FasL) in Hepes-buffered saline, 30 ul/min; 5 min association, 11 min dissociation; BIAeval 4.1. As to conditions: one partner purified.

Series [2] concerns the molecule itself. The series is described as follows: SEC; gel filtration on Sephacryl S-200-HR and S-300-HR columns; concentrated COS supernatants, eluted in PBS at 0.3 ml/min; FasL in the fractions found by ELISA; size of the oligomer of the FasL construct. On the technique in general: Size exclusion chromatography separates by hydrodynamic size, large species first.
The series “Recombinant Fas-Fc” concerns the target B1. The experiment in a line: SPR; BIAcore 3000; Fas-Fc covalently coupled to a CM5 flow cell (2,000 RU); FasL constructs as concentrated, dialysed COS supernatants flowed over (0.2-100 nM IgFasL, 0.2-44 nM cFasL, 0.2-37.5 nM D2FasL, 0.25-8 nM D1IgD2FasL) in Hepes-buffered saline, 30 ul/min; 5 min association, 11 min dissociation; BIAeval 4.1. As to conditions: one partner purified.

For B1, in series [1], the Kd worked out at 69.4 nM, the off-rate constant (koff) turned out to be 0.0059 s⁻¹ and the association rate constant (kon) came to 84000 M⁻¹ s⁻¹.

On to B2, for which the “stoichiometry N” value in series [2] came to 6. Further, in the series with Recombinant Fas-Fc, the Kd turned out to be 38.5 nM, the koff amounted to 0.006 s⁻¹ and the kon was determined as 160000 M⁻¹ s⁻¹.

For B3, the “stoichiometry N” value in series [2] was 6. In the series with Recombinant Fas-Fc, the dissociation constant (Kd) was determined as 25.6 nM, the off-rate constant (koff) was found to be 0.0033 s⁻¹ and the kon turned out to be 130000 M⁻¹ s⁻¹.

Take B4: in series [2], the “stoichiometry N” value was 12 and 6. Further, in the series with Recombinant Fas-Fc, the dissociation constant Kd came to 11.6 nM, the dissociation rate constant (koff) worked out at 0.00041 s⁻¹ and the on-rate (kon) came out at 25000 M⁻¹ s⁻¹.

B5: in series [2], the “stoichiometry N” value was 3.

As a reminder, the Kd is the equilibrium constant for the complex coming apart. Usually koff stands for the first-order rate constant of dissociation. The kon is the second-order rate constant of association. What is called stoichiometry N is the number of molecules, sites or subunits per partner or assembly.

The record behind these values is paper PMC3541234, “Functional Characterization of a Chimeric Soluble Fas Ligand Polymer with In Vivo Anti-Tumor Activity” (PLoS ONE, 2013).
